The values below come from patent publication US5316947A, “Synthetic isohirudins with improved stability” (Hoechst Aktiengesellschaft, priority 1991, dated 1994).

The target in one data set is thrombin (Homo sapiens, UniProt P00734). The experiment in a line: Comparative Ki value determination on optimized isohirudins (method of Stone and Hofsteenge, chromogenic substrate D-HHT-Gly-Arg-pNA). It is filed as biochemical. The note with it: 25° C., pH 8.3, 0.1 M tris, 0.2 M NaCl, 0.1% Triton X-100; Ki = koff/kon; read-out: Ki(app.). The method, then: Ki values were determined by the method of Stone and Hofsteenge (Biochemistry 25, pages 4622-4628, 1986): 0.2 ml of a 1.25 mM solution of D-HHT-Gly-Arg-pNA was equilibrated at 25° C. with 1.7 ml of 0.1 M tris, 0.2 M NaCl and 0.1% (v/v) Triton X-100 pH 8.3 and 0.1 ml of the isohirudin to be tested in 145 mM NaCl. Binding was started by adding 0.05 ml of thrombin solution. The absorption at 405 nm was recorded for a period of 10-20 min.
The reaction follows the equation:
[P]=vs *t+(vo -v5)(1-e^-k*t)/k+d,
[P]=product concentration (nitroaniline) […]
vs =reaction rate in the equilibrium state
The rate constant k was determined by non-linear regression. Extrapolation of k at various inhibitor concentrations to [1]=0 according to […]
yields the rate constants kon and koff and thus Ki =koff /kon.

Data set [1] in a line: 20-hour stability of [Ala1,Thr2] desulfatohirudin analogs at pH 7 and 60° C. (RP HPLC and anion exchange chromatography). It is filed as physicochemical. To be noted: stress conditions: 20 h, 0.5 mg/ml in 20 mM NaP, 300 mM NaCl. The procedure:
The compound to be tested was dissolved in 0.5 mg/ml in 20 mM NaP, pH 7, 300 mM NaCl and incubated at 60° C. for 20 h. Samples were taken at times t=0 and t=20 h and analyzed by RP HPLC (Nucleosil®) and anionic exchange chromatography (Mono Q®). The content of newly formed byproducts was calculated.

Data set [2] in a line: Time course of byproduct formation of desulfatohirudin analogs at pH 6.5 and pH 4, 60° C. (FIG. 4 and FIG. 3). It is filed as physicochemical. The note with it: 1 mg/ml in water, pH 4 (FIG. 3) and pH 6.5 (FIG. 4), up to 96 h. The procedure: The purified isohirudins, as lyophilisate, were dissolved at 1 mg/ml in water and adjusted to pH 6.5 with 1 M […]. After sterilization by filtration, […]. Samples were taken at times t=0, 5, 24, 48, 72 and 96 h and analyzed by RP HPLC (Nucleosil®) and ion exchange chromatography (Mono®) for the content of byproducts therein. The purity at time t=x is shown relative to the purity at t=0, with in each case the less favorable value from the two analysis systems being used as bases (FIG. 4).
The purified isohirudins, as lyophilisate, were dissolved at 1 mg/ml in water and adjusted to pH 4 with 1 M acetic acid. Incubation and analyses were carried out as in Example 10 (FIG. 3).

Take “[Ala^1,Thr^2 ] desulfatohirudin [reference compound]”: the Ki at thrombin was found to be 0.2 nM. Also, in data set [1], the “% newly formed byproducts” value is on record as 23.0%.

For “[Leu^1,Thr^2 ] desulfatohirudin [reference compound]”, the Ki at thrombin is 0.14 nM.

With “[Ala^1,Thr^2,Glu^33,Glu^53 ] desulfatohirudin”, the Ki in the data set with thrombin worked out at 0.37 nM. The “Stability (byproduct formation over time)” value in data set [2] was “simple exchange of the aspartic acid does not have the optimal effect”.

Regarding “[Ile^1,Thr^2 ] desulfatohirudin [reference compound]”, the Ki at thrombin worked out at 0.61 nM.

B1: [Ala^1 Thr^2,Glu^33,Ala^54 ] desulfatohirudin (protein)
chain: ATYTDCTESGQNLCLCEGSNVCGQGNKCILGSEGEKNQCVTGEGTPKPQSHNDADFEEIPEEYLQ
modifications: ends and bridges not checked
As for B1, the Ki with thrombin came to 0.35 nM.

B2: [Ala^1,Thr^2,Glu^33,Gln^52,Glu^53,Ala^54 ]-desulfatohirudin (protein)
chain: ATYTDCTESGQNLCLCEGSNVCGQGNKCILGSEGEKNQCVTGEGTPKPQSHQEADFEEIPEEYLQ
modifications: ends and bridges not checked
B2: in the data set with thrombin, the Ki is 0.31 nM. For the same molecule, in data set [2], the “Stability (byproduct formation over time)” value is “superior stability”.

B3: [Ala^1,Thr^2,Gln^52,Glu^53,Glu^55 ] desulfatohirudin (protein)
chain: ATYTDCTESGQNLCLCEGSNVCGQGNKCILGSDGEKNQCVTGEGTPKPQSHQEGEFEEIPEEYLQ
modifications: ends and bridges not checked
Consider B3, for which the Ki with thrombin was 0.19 nM. The “% newly formed byproducts” value in data set [1] worked out at 14.6%.

B4: [Ala^1,Thr^2,Ala^54 ] desulfatohirudin (protein)
chain: ATYTDCTESGQNLCLCEGSNVCGQGNKCILGSDGEKNQCVTGEGTPKPQSHNDADFEEIPEEYLQ
modifications: ends and bridges not checked
Turning to B4, the Ki with thrombin stood at 0.27 nM.

B5: [Ala^1,Thr^2,Glu^33 ] desulfatohirudin (protein)
chain: ATYTDCTESGQNLCLCEGSNVCGQGNKCILGSEGEKNQCVTGEGTPKPQSHNDGDFEEIPEEYLQ
modifications: ends and bridges not checked
For the molecule B5, in the data set with thrombin, the Ki was found to be 0.16 nM. For the same molecule, the “% newly formed byproducts” value in data set [1] came to 15.2%.

B6: [Ala^1,Thr^2,Glu^33,Gln^52,Glu^53,Glu^55 ]-desulfatohirudin (protein)
chain: ATYTDCTESGQNLCLCEGSNVCGQGNKCILGSEGEKNQCVTGEGTPKPQSHQEGEFEEIPEEYLQ
modifications: ends and bridges not checked
On to B6, for which the Ki in the data set with thrombin is 0.3 nM. Moreover, the “Stability (byproduct formation over time)” value in data set [2] is given as “superior stability”. In addition, the “% newly formed byproducts” value in data set [1] is listed as 3.2%.

B7: [Ala^1,Thr^2,Glu^53 ] desulfatohirudin (protein)
chain: ATYTDCTESGQNLCLCEGSNVCGQGNKCILGSDGEKNQCVTGEGTPKPQSHNEGDFEEIPEEYLQ
modifications: ends and bridges not checked
Consider B7, for which the Ki in the data set with thrombin was determined as 0.38 nM.

B8: [Ala^1,Thr^2,Gln^52,Glu^53,Ala^54 ] desulfatohirudin (protein)
chain: ATYTDCTESGQNLCLCEGSNVCGQGNKCILGSDGEKNQCVTGEGTPKPQSHQEADFEEIPEEYLQ
modifications: ends and bridges not checked
Regarding B8, the Ki in the data set with thrombin amounted to 0.22 nM.
